US20140242093A1, “METHODS AND COMPOSITIONS FOR MODULATING THE INNATE IMMUNE RESPONSE AND/OR MYOGENESIS IN A MAMMALIAN SUBJECT” (FRED HUTCHINSON CANCER RESEARCH CENTER, priority 2011, published 2014)

Tested on: control human primary myoblasts
Assay: Expression microarray of primary myoblasts transduced with lentivirus carrying DUX4-fl, DUX4-s or GFP
Procedure: Primary human myoblasts were collected and cultured as previously described (Snider et al., 2010). Primary myoblasts were maintained at or below 70% confluency for proliferation. For differentiation, cells were allowed to reach 95-100% confluency in growth medium. Once confluency was reached, the cells were changed to differentiation medium (F10 media supplemented with 1% horse serum, 10 μg/mL insulin, and 10 μg/mL transferrin, penicillin/streptomycin) and maintained for 4 days. Human RD cells were grown in DMEM in 10% bovine calf serum (Hyclone) and penicillin/streptomycin. The primary myoblasts were transduced with lentivirus carrying DUX-fl, DUX4- or GFP (MOI=15).
Expression microarrays were performed on the transduced cells at 24 hours after transduction as follows. […] Samples were analyzed by Illumina Human Whole Genome microarrays. Probe intensities were corrected, normalized, and summarized by the Lumi package of Bioconductor (Du et al., 2008). Differentially expressed genes were identified by the LIMMA package of Bioconductor (Wettenhall and Smyth, 2004). Gene set enrichment analysis (GSEA) was performed using the Bioconductor GOstats package (Falcon and Gentleman, 2007).

B1: DUX4-s: short splice form of DUX4 (SEQ ID NO:112), keeps the double-homeobox domains, lacks the C-terminal activation domain (protein, listed as Homo sapiens)
chain: MALPTPSDSTLPAEARGRGRRRRLVWTPSQSEALRACFERNPYPGIATRERLAQAIGIPEPRVQIWFQNERSRQLRQHRRESRPWPGRRGPPEGRRKRTAVTGSQTALLLRAFEKDRFPGIAAREELARETGLPESRIQIWFQNRRARHPGQGGRAPAQV
For B1, the “fc of XPO1 (expression array)” value (Refseq NM_003400.3) was −0.2325, the “fc of ZFP36 (expression array)” value (Refseq NM_003407.2) was 0.2317 and the ZKSCAN1 fc (Refseq NM_003439.1) was 0.3802. For the same molecule, the “fc of Cxorfl2 (expression array)” value (Refseq NM_003492.1) was 0.03462, the “fc of TAGLN2 (expression array)” value (Refseq NM_003564.1) was 0.05495 and the “fc of EEA1 (expression array)” value (Refseq NM_003566.2) was 1.034. The IFITM1 expression fc (Refseq NM_003641.3, cultured human skeletal muscle) was 0.3441, the “fc of VAMP8 (expression array)” value (Refseq NM_003761.2) was 0.002691 and the “fc of VAMP4 (expression array)” value (Refseq NM_003762.3) was 0.4731. The RNGTT expression fc (Refseq NM_003800.3) was −0.5916, the RIPK1 fc (Refseq NM_003804.3) was −0.2407 and the TNFSF10 fc (Refseq NM_003810.2) was 2.972. For the same molecule, the TNFRSF14 expression fc (Refseq NM_003820.2, cultured human skeletal muscle) was 0.5666, the “fc of RIOK3 (expression array)” value (Refseq NM_003831.2) was 1.133 and the TNFRSF10A fc (Refseq NM_003844.2) was 0.8441. It also gave a PEX11B fc (Refseq NM_003846.1) of −0.2212, a CES2 expression fc (Refseq NM_003869.4, cultured human skeletal muscle) of 0.06106 and a CFLAR expression fc (Refseq NM_003879.3, cultured human skeletal muscle) of 0.5313. The “fc of ASAP2 (expression array)” value (Refseq NM_003887.2) was −0.3423, the CCNA1 expression fc (Refseq NM_003914.2) was 1.884 and the “fc of USP13 (expression array)” value (Refseq NM_003940.2) was −1.038. For the same molecule, the NPR2 fc (Refseq NM_003995.3) was −0.04506, the “fc of OSMR (expression array)” value (Refseq NM_003999.1) was 1.118 and the CHI3L2 expression fc (Refseq NM_004000.2, cultured human skeletal muscle) was 0.2573. It also gave an IRF7 expression fc (Refseq NM_004029.2, cultured human skeletal muscle) of 1.137, a CRY1 expression fc (Refseq NM_004075.2) of −0.1268 and a PSPN expression fc (Refseq NM_004158.2) of −0.03876. For the same molecule, the BEST1 fc (Refseq NM_004183.2) was 0.2661, the UBE2L6 expression fc (Refseq NM_004223.3, cultured human skeletal muscle) was 0.5808 and the “fc of STK17B (expression array)” value (Refseq NM_004226.2) was 1.309. For the same molecule, the “fc of SLC9A3R1 (expression array)” value (Refseq NM_004252.2) was −0.06339, the BST2 expression fc (Refseq NM_004335.2, cultured human skeletal muscle) was 0.21 and the CREB1 fc (Refseq NM_004379.2) was −0.08534. For the same molecule, the “fc of HOXB7 (expression array)” value (Refseq NM_004502.3) was −0.06124, the SP110 expression fc (Refseq NM_004510.2, cultured human skeletal muscle) was 1.154 and the PSPH fc (Refseq NM_004577.3) was 0.005654. The XPC expression fc (Refseq NM_004628.3, cultured human skeletal muscle) was 0.2629, the PABPN1 expression fc (Refseq NM_004643.1) was −0.2585 and the MAP3K6 fc (Refseq NM_004672.3) was −0.2268. The “fc of SLC16A5 (expression array)” value (Refseq NM_004695.2) was −0.03968, the “fc of SFRS2IP (expression array)” value (Refseq NM_004719.2) was −1.068 and the “fc of ARHGEF2 (expression array)” value (Refseq NM_004723.2) was −0.07136. For the same molecule, the TIAF1 fc (Refseq NM_004740.3) was −0.5294, the NOLC1 expression fc (Refseq NM_004741.1) was 0.4977 and the SLIT2 expression fc (Refseq NM_004787.1) was 0.8501. It also gave an LPXN fc (Refseq NM_004811.1) of −0.0176, a PEX16 fc (Refseq NM_004813.1) of 0.02427 and a C9orf61 expression fc (Refseq NM_004816.2) of −0.2563. The MED26 expression fc (Refseq NM_004831.3) was 0.1371, the “fc of GSTO1 (expression array)” value (Refseq NM_004832.1) was 0.3142 and the “fc of LITAF (expression array)” value (Refseq NM_004862.2) was 1.12. For the same molecule, the “fc of SCAMPI (expression array)” value (Refseq NM_004866.4) was 1.369, the “fc of APBA3 (expression array)” value (Refseq NM_004886.3) was 0.001776 and the SERPINI1 expression fc (Refseq NM_005025.3) was 0.0354. For the same molecule, the TRIM25 expression fc (Refseq NM_005082.4, cultured human skeletal muscle) was 0.5139, the SFRS17A expression fc (Refseq NM_005088.2) was 0.2404 and the ISG15 expression fc (Refseq NM_005101.1, cultured human skeletal muscle) was 0.128. For the same molecule, the MVP fc (Refseq NM_005115.3) was −0.1162, the MED13 expression fc (Refseq NM_005121.2) was 0.0264 and the “fc of REC8 (expression array)” value (Refseq NM_005132.2) was −0.244. The ATP6V0A1 fc (Refseq NM_005177.3) was −0.04497, the CEBPB expression fc (Refseq NM_005194.2, cultured human skeletal muscle) was 0.2783 and the ETS1 fc (Refseq NM_005238.2) was −0.1783. The FAT1 fc (Refseq NM_005245.3) was 0.4055, the GPR37 expression fc (Refseq NM_005302.2) was 0.2151 and the H1F0 expression fc (Refseq NM_005318.2, cultured human skeletal muscle) was 0.5004. The HSPA1A expression fc (Refseq NM_005345.4) was −0.02035, the HSPA1B expression fc (Refseq NM_005346.3) was 0.359 and the NEFM expression fc (Refseq NM_005382.1) was 0.8485. It also gave an SHMT2 fc (Refseq NM_005412.4) of 0.2615, an STAT2 expression fc (Refseq NM_005419.2, cultured human skeletal muscle) of 0.1861 and an EOMES expression fc (Refseq NM_005442.2) of 0.06484. The TOM1 fc (Refseq NM_005488.1) was 4.81E−05, the HLA-B expression fc (Refseq NM_005514.5, cultured human skeletal muscle) was 0.3367 and the HLA-E fc (Refseq NM_005516.4) was 0.8147. It also gave an IFI16 expression fc (Refseq NM_005531.1, cultured human skeletal muscle) of 0.6846, an IFI27 expression fc (Refseq NM_005532.3, cultured human skeletal muscle) of 0.2746 and an IFI35 expression fc (Refseq NM_005533.2, cultured human skeletal muscle) of 0.9169. For the same molecule, the IRS1 fc (Refseq NM_005544.1) was 0.2753, the KLC1 expression fc (Refseq NM_005552.4) was −0.06609 and the RGS4 expression fc (Refseq NM_005613.3) was −0.4837. The SGK expression fc (Refseq NM_005627.2) was −0.1104, the TAF4B expression fc (Refseq NM_005640.1) was −0.0444 and the “fc of TERF2 (expression array)” value (Refseq NM_005652.2) was 0.3314. The “fc of REEP5 (expression array)” value (Refseq NM_005669.4) was −1.138, the “fc of HIPK3 (expression array)” value (Refseq NM_005734.3) was 1.555 and the ARIH1 expression fc (Refseq NM_005744.2) was 0.784. For the same molecule, the “fc of NAMPT (expression array)” value (Refseq NM_005746.2) was 1.21, the LHFPL2 fc (Refseq NM_005779.1) was −0.1437 and the STX6 expression fc (Refseq NM_005819.4) was −0.4696. For the same molecule, the “fc of RCAN2 (expression array)” value (Refseq NM_005822.2) was −1.005, the MFGE8 fc (Refseq NM_005928.1) was 0.03254 and the MT1X expression fc (Refseq NM_005952.2, cultured human skeletal muscle) was 0.3162. It also gave an SNAI1 expression fc (Refseq NM_005985.2) of −0.03657, an RBM12 expression fc (Refseq NM_006047.4) of −0.3748 and a TRIM22 expression fc (Refseq NM_006074.3, cultured human skeletal muscle) of −0.01965. It also gave a CBARA1 expression fc (Refseq NM_006077.2) of −0.1543, a TUBB2C expression fc (Refseq NM_006088.5) of −0.5391 and an LASP1 fc (Refseq NM_006148.1) of −0.4552. The NFE2L2 fc (Refseq NM_006164.2) was 0.329, the OAS3 expression fc (Refseq NM_006187.2, cultured human skeletal muscle) was 0.8654 and the “fc of PDGFRL (expression array)” value (Refseq NM_006207.1) was 1.203. The PSME1 fc (Refseq NM_006263.2) was 0.2775, the STK3 expression fc (Refseq NM_006281.2) was −0.215 and the THY1 fc (Refseq NM_006288.2) was −0.6444. For the same molecule, the TNFAIP3 expression fc (Refseq NM_006290.2, cultured human skeletal muscle) was 0.2793, the HSPB3 expression fc (Refseq NM_006308.1) was −0.7934 and the NXF1 expression fc (Refseq NM_006362.4) was −0.3456. The “fc of ATG7 (expression array)” value (Refseq NM_006395.1) was 0.2083, the SLC34A2 expression fc (Refseq NM_006424.2) was −0.03231 and the TXNRD2 fc (Refseq NM_006440.3) was −0.1666. For the same molecule, the “fc of MXD4 (expression array)” value (Refseq NM_006454.2) was −0.9168, the ARID3B expression fc (Refseq NM_006465.2) was −0.07455 and the TXNIP expression fc (Refseq NM_006472.2, cultured human skeletal muscle) was −0.01014. For the same molecule, the ZNF217 expression fc (Refseq NM_006526.2) was −0.3262, the FAM189B fc (Refseq NM_006589.2) was 0.04019 and the “fc of TCFL5 (expression array)” value (Refseq NM_006602.2) was 0.0336. For the same molecule, the RFPL2 expression fc (Refseq NM_006605.1) was 0.03122, the “fc of NES (expression array)” value (Refseq NM_006617.1) was −1.118 and the HSPH1 expression fc (Refseq NM_006644.2) was −0.4879. It also gave an HCP5 fc (Refseq NM_006674.2) of 0.1443, a UGP2 fc (Refseq NM_006759.3) of 0.1108 and an IFI44L expression fc (Refseq NM_006820.1, cultured human skeletal muscle) of 0.4651. The “fc of CKAP4 (expression array)” value (Refseq NM_006825.2) was 0.03538, the “fc of ILVBL (expression array)” value (Refseq NM_006844.3) was −0.2803 and the KDELR3 fc (Refseq NM_006855.2) was −0.444. For the same molecule, the “fc of GMPR (expression array)” value (Refseq NM_006877.2) was 1.36, the SLC2A3 expression fc (Refseq NM_006931.1) was 0.1012 and the “fc of HSPA13 (expression array)” value (Refseq NM_006948.4) was 1.34. For the same molecule, the ZBTB25 fc (Refseq NM_006977.2) was 0.3463, the ADAMTS1 fc (Refseq NM_006988.3) was 0.1765 and the C1Oorf10 expression fc (Refseq NM_007021.2, cultured human skeletal muscle) was 0.1432. For the same molecule, the “fc of DNAJB4 (expression array)” value (Refseq NM_007034.3) was 0.413, the KATNA1 expression fc (Refseq NM_007044.2) was 0.1132 and the UBL3 expression fc (Refseq NM_007106.2) was −0.807. For the same molecule, the TESK2 expression fc (Refseq NM_007170.2) was 0.1269, the NUP50 expression fc (Refseq NM_007172.3) was 1.035 and the “fc of PACSIN2 (expression array)” value (Refseq NM_007229.1) was −0.3253. The DUSP12 expression fc (Refseq NM_007240.1) was 0.09869.
